Key:
Modified Phage CTPR2 = test: ITC; 166.6 uM Keap1 titrated into 16.66 uM CTPR or peptide; 50 mM Tris-HCl 150 mM NaCl 0.5 mM TCEP pH 8; 20 injections of 2 ul; one-site binding model
[1] = target: T1, Keap1 Kelch domain construct (residues 321-624) (UniProt Q14145 321-624); test: as above; details: both partners purified
T1 construct: Keap1 Kelch domain, residues 321-624; pNIC28-BSA4 vector with a TEV cleavage site after the His-tag; gift of Alex Bullock (Structural Genomics Consortium, Oxford); No TEV cleavage is described in the purification; also called Kelch domain of Keap1; source: E. coli C41, purified (Ni-NTA, size exclusion chromatography)
T1 sequence (Q14145 321-624): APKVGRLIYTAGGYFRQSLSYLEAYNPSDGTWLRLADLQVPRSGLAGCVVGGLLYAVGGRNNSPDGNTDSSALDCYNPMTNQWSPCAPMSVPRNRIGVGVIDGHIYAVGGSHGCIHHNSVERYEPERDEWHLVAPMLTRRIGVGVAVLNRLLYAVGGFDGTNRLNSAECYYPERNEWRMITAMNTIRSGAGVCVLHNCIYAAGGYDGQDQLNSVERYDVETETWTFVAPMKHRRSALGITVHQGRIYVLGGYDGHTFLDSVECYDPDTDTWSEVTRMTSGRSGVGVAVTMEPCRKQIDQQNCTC

## Keap1 Kelch domain construct (residues 321-624) (from UniProt Q14145 321-624) (domain or fragment)
Modified Phage CTPR2
  Kd: 0.022 µM

B1: Ac-DPETGEL-NH2 (peptide)
peptide: Ac-DPETGEL-NH2
notes: peptide found by phage display (Hancock et al. 2012); also called phage display-derived peptide; phage display-derived free peptide; source: synthetic peptide (Cambridge Peptides Ltd)
[1]
  Kd: 0.341 µM

B2: Ac-LDPETGELL-NH2 (peptide)
peptide: Ac-LDPETGELL-NH2
notes: phage display-derived peptide DPETGEL extended by two flanking leucines; also called modified phage display-derived peptide; Modified phage display-derived free peptide; source: synthetic peptide (Cambridge Peptides Ltd)
[1]
  Kd: 0.00465 µM

Source: publication PMC8660007 (Protein Engineering, Design and Selection, 2021)
